Measured values reported in patent US20240360183A1 (SHANGHAI PUYOU BIOMEDICAL, published 2024).

Key:
BSA = BSA (UniProt P02769 25-607); assay: cell-based or functional assay
oxidized HSA protein = oxidized HSA protein (UniProt P02768 25-609, oxidized with 8 mM NaClO in the dark for 30 min (which residues are oxidized is not stated)); assay: cell-based or functional assay
oxidized HSA protein, sequence (P02768 25-609): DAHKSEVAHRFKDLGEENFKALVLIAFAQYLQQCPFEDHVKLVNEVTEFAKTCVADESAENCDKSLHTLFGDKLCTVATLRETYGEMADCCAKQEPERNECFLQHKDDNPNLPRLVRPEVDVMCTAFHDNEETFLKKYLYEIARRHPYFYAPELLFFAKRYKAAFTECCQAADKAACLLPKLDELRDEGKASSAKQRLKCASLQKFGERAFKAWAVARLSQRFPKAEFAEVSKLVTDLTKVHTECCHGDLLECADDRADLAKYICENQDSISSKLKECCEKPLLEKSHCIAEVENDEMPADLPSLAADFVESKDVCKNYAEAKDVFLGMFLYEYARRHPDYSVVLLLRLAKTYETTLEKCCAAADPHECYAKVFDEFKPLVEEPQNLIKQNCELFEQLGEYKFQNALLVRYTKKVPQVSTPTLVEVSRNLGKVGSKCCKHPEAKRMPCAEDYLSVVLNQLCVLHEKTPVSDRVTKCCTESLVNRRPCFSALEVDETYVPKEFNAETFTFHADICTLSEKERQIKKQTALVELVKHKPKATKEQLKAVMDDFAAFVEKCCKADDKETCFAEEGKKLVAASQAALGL

BSA, sequence (P02769 25-607 limits assumed): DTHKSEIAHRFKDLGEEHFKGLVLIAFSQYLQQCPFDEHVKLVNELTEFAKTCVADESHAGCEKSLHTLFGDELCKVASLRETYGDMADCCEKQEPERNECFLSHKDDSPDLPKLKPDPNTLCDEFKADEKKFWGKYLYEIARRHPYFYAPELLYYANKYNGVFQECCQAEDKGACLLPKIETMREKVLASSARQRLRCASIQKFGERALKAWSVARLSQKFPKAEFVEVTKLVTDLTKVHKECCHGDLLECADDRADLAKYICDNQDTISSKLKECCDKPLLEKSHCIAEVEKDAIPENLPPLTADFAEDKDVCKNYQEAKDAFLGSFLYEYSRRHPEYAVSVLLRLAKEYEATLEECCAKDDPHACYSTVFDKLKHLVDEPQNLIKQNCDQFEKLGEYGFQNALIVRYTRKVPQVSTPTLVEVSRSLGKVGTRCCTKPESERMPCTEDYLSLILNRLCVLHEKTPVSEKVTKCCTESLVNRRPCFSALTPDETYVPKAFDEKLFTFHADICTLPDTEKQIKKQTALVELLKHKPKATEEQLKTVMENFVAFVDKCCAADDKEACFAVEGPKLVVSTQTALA

Binder	IC50 (µM) for inhibiting thermal aggregation of BSA (BSA)	IC50 (µM) for cellular ROS level induced by DAMP (oxidized HSA protein)
CF-43 (SEQ ID NO: 54) (peptide) SEKKQPVDLGLLEEDDEFEEFPAEDWAGLDEDEDAHVWEDNWDDDNVTSDFSNQLRATVLLMILVCETPYGCYVLHQKGRMCS	6.77 µM	6.13 µM
CF-30 (SEQ ID NO: 47) (peptide) SDADEFDDDNSVWGWEDDEVEPNDAFQPLGDVRANEELDEKDHKLDEEADLQWEFELTVLLMILVCETPYGCYVLHQKGRMCSAFLCC	21.3 µM	
CF-11 (SEQ ID NO: 31) (peptide) SEKKQPVDLGLLEEDDEFEEFPAEDWAGLDEDEDAHVWEDNWDDDNVEDDFSNQLRATVLLMILVVETPYGVYVLHQKGRMVSAFLVV	~7 µM	
CF-39 (SEQ ID NO: 52) (peptide) SEKKQPVDLGLLEEDDEFEEFPAEDWAGLDEDESAHVWEDNWDDDNVTSDFSNQLRATVLLMILVCETPYGCYVLHQKGRMCSAFLCC	10.5 µM	3.91 µM
CF-10 (SEQ ID NO: 30) (peptide) SEKKQPVDLGLLEEDDEFEEFPAEDWAGLDEDEDAHVWEDNWDDDNVEDDFSNQLRATVLLMILVCETPYGCYVLHQKGRMCSAFLCA	13.8 µM	
CF-40 (SEQ ID NO: 53) (peptide) SEKKQPVDLGLLEEDDEFEEFPAEDWAGLDEDEDAHVWEDNWDDDNVTSDFSNQLRATVLLMILVCETPYGCYVLHQKGRMCSAFLCC	12 µM	5.87 µM
CF-22 (SEQ ID NO: 36) (peptide) SEKKQPVDLGLLEEDDEFEEFPAEDWAGLDEDEDAHVWEDNWDDDNVEDDFSNQLRATVLLMILVVETPYGAYVLHQKGRMASAFLVV	16.9 µM	
CF-38 (SEQ ID NO: 51) (peptide) STKKQPVDLGLLEEDDEFEEFPAESWAGLDEDESAHVWEDNWDDDNVTSDFSNQLRATVLLMILVCETPYGCYVLHQKGRMCSAFLCC	13.8 µM	4.12 µM
CF-04 (SEQ ID NO: 29) (peptide) SEKKQPVDLGLLEEDDEFEEFPAEDWAGLDEDEDAHVWEDNWDDDNVEDDFSNQLRATVLLMILVAETPYGAYVLHQKGRMASAFLAA	~10.2 µM	
CF-25 (SEQ ID NO: 39) (peptide) SEKKQPVDLGLLEEDDEFEEFPAEDWAGLDEDEDAHVWEDNWDDDNVEDDFSNQLRATVLLMILVVETPYGVYVLHQKGRMASAFLAV	21.5 µM	
CF-24 (SEQ ID NO: 38) (peptide) SEKKQPVDLGLLEEDDEFEEFPAEDWAGLDEDEDAHVWEDNWDDDNVEDDFSNQLRATVLLMILVVETPYGAYVLHQKGRMVSAFLVA	17.6 µM	
CF-31 (SEQ ID NO: 48) (peptide) SQWAPLDHLESDEWGAFEDEDFNNGDVEELDPEERDDEDLFQKDVLVAKADDEEWDNTVLLMILVCETPYGCYVLHQKGRMCSAFLCC	12.8 µM	
CF-29 (SEQ ID NO: 46) (peptide) SELDFWDNWKDRQADLPAASDDEDFENDLAEVDHEDPLVDGNEWDGDEVEFELEEQKTVLLMILVCETPYGCYVLHQKGRMCSAFLCC	13.8 µM	
CF-28 (SEQ ID NO: 45) (peptide) SEFEDANKEQGEVPNDDVSDELPKLLDDDEDELRGALFFQWHDWEEAEDNDWDVEDATVLLMILVCETPYGCYVLHQKGRMCSAFLCC	7.48 µM	
